Experiment in all cases: fluorescence polarization
Common to all, as to conditions: 50 mM HEPES-KOH pH 7.5, 10 mM potassium acetate, 2 mM beta-mercaptoethanol, 0.1 mg/mL BSA, 5 mM MgCl2, 2 nM DNA, temperature not stated
For orientation: In fluorescence polarisation assays a small probe gives low polarisation when free and higher when bound to something large.

Data set [1] concerns the target T1, pol eta core G209V G209V (Homo sapiens) (UniProt Q9Y253).
T1 sequence: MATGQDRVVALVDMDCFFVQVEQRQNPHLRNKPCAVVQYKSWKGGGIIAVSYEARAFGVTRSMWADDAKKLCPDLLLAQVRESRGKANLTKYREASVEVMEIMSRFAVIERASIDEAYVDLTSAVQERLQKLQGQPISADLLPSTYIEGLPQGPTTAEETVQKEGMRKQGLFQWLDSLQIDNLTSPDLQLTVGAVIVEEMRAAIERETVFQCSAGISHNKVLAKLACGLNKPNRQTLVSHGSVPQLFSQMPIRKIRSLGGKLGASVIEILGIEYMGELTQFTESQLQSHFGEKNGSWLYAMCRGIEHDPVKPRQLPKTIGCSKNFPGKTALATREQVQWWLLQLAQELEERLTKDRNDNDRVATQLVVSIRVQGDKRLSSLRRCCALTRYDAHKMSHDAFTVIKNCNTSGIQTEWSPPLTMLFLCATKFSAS

Data set [2] concerns the target T2, pol eta core R334G R334G (Homo sapiens) (UniProt Q9Y253).
T2 sequence: T1 sequence with V209G, R334G

Data set [3] has as its target T3, pol eta core R167Q R167Q (Homo sapiens) (UniProt Q9Y253).
T3 sequence: T1 sequence with R167Q, V209G

For data set [4], the target named is T4, pol eta core S296F S296F (Homo sapiens) (UniProt Q9Y253).
T4 sequence: T1 sequence with V209G, S296F

Data set [5] has as its target T5, pol eta core I272T I272T (Homo sapiens) (UniProt Q9Y253).
T5 sequence: T1 sequence with V209G, I272T

In data set [6] the target is T6, DNA polymerase eta core, wild-type (Homo sapiens) (UniProt Q9Y253).
T6 sequence: T1 sequence with V209G

The target of data set [7] is T7, pol eta core C34W C34W (Homo sapiens) (UniProt Q9Y253).
T7 sequence: T1 sequence with C34W, V209G

Data set [8] has as its target T8, pol eta core I147N I147N (Homo sapiens) (UniProt Q9Y253).
T8 sequence: T1 sequence with I147N, V209G

Data set [9] concerns the target T9, pol eta core T329I T329I (Homo sapiens) (UniProt Q9Y253).
T9 sequence: T1 sequence with V209G, T329I

Setting [10] is: cis-syn cyclobutane thymine dimer at T7-T8 of the 25-mer template.

Numbering of substitutions follows the chain as printed.

Take “CACCATCCACTAC / ATGTAGTTGTAGTGGATGGTGGTAC [13-FAM-mer/25-CTD-mer]”: the dissociation constant (Kd) in [1] (setting [10]) amounted to 11 nM; in data set [2] (setting [10]), 12 nM; in data set [3] (setting [10]), 18 nM; in data set [4] (setting [10]), 14 nM; in [5] (setting [10]), 11 nM; in data set [6] (setting [10]), 11 nM. Moreover, the equilibrium dissociation constant (Kd) in [7] (setting [10]) came out at 5.9 nM; in [8] (setting [10]), 7 nM; in [9] (setting [10]), 5.9 nM.

As to “CACCATCCACTAC / ATGTAGTTGTAGTGGATGGTGGTAC [13-FAM-mer/25-TT-mer]”, the equilibrium dissociation constant (Kd) in [1] was 8.4 nM; in data set [2], 11 nM; in data set [3], 9.5 nM; in data set [4] it was 10 nM; in data set [5] it was 8.5 nM; in data set [6], 10 nM. In addition, the Kd stood at 6.1 nM in [7], 6.7 nM in [8] and 5 nM in data set [9].

By Kd is commonly meant the free concentration of one partner at which half of the binding sites on the other are occupied at equilibrium, for simple one-to-one binding. The low end stands for a tighter complex, the high end for a looser complex.

Values taken from PMC10048814.
